Values quoted from earlier work, collected in article PMC10276003.

Target: GRB2 (Homo sapiens) (UniProt P62993)

- Kd: 700 nM
Substance: GRB2 (from UniProt P62993)
